Measured values reported in patent publication US20230340127A1 (SANFORD BURNHAM PREBYS MEDICAL DISCOVERY INSTITUTE, published 2023).

B1: CUL4B (endogenous) (other, UniProt Q13620 1-913, looked up)
chain: MMSQSSGSGDGNDDEATTSKDGGFSSPSPSAAAAAQEVRSATDGNTSTTPPTSAKKRKLNSSSSSSSNSSNEREDFDSTSSSSSTPPLQPRDSASPSTSSFCLGVSVAASSHVPIQKKLRFEDTLEFVGFDAKMAEESSSSSSSSSPTAATSQQQQLKNKSILISSVASVHHANGLAKSSTTVSSFANSKPGSAKKLVIKNFKDKPKLPENYTDETWQKLKEAVEAIQNSTSIKYNLEELYQAVENLCSYKISANLYKQLRQICEDHIKAQIHQFREDSLDSVLFLKKIDRCWQNHCRQMIMIRSIFLFLDRTYVLQNSMLPSIWDMGLELFRAHIISDQKVQNKTIDGILLLIERERNGEAIDRSLLRSLLSMLSDLQIYQDSFEQRFLEETNRLYAAEGQKLMQEREVPEYLHHVNKRLEEEADRLITYLDQTTQKSLIATVEKQLLGEHLTAILQKGLNNLLDENRIQDLSLLYQLFSRVRGGVQVLLQQWIEYIKAFGSTIVINPEKDKTMVQELLDFKDKVDHIIDICFLKNEKFINAMKEAFETFINKRPNKPAELIAKYVDSKLRAGNKEATDEELEKMLDKIMIIFRFIYGKDVFEAFYKKDLAKRLLVGKSASVDAEKSMLSKLKHECGAAFTSKLEGMFKDMELSKDIMIQFKQYMQNQNVPGNIELTVNILTMGYWPTYVPMEVHLPPEMVKLQEIFKTFYLGKHSGRKLQWQSTLGHCVLKAEFKEGKKELQVSLFQTLVLLMFNEGEEFSLEEIKQATGIEDGELRRTLQSLACGKARVLAKNPKGKDIEDGDKFICNDDFKHKLFRIKINQIQMKETVEEQASTTERVFQDRQYQIDAAIVRIMKMRKTLSHNLLVSEVYNQLKFPVKPADLKKRIESLIDRDYMERDKENPNQYNYIA
notes: also called CRL4 component

How the values were obtained:
DDB1 (endogenous) = biological target: T1, DDB1 (endogenous) (UniProt Q16531 2-1140); experiment: co-IP of endogenous CUL4B with DDB1 (anti-CUL4B antibody), control vs FBXO44 KD cells (FIG. 3G)
T1 construct: also called CRL4 component
Procedure: (§1) Immunoprecipitation or co-immunoprecipitation (IP or co-IP): for IP, cells were lysed in IP buffer (50 mM Tris-HCl [pH 7.4], 125 mM NaCl, 1 mM EDTA, 0.1% Triton X-100) with inhibitors (50 mM NaF, 1 mM PMSF, 1 mM Na₃VO₄, 1 μg/mL Aprotinin, 1 μg/mL Leupeptin, 1 μg/mL Pepstatin) followed by sonication and centrifugation to clear insoluble debris. Lysates were then incubated with protein G agarose beads and IgG antibody of the same species as the IP antibody for 2 hr at 4° C. to reduce non-specific binding. The cleared lysates were then incubated with IP antibody overnight at 4° C. Specifically, for Flag IP, 5 μg of anti-Flag antibody (Sigma-Aldrich no. F7425) was used for 2500 μg of protein lysate. For Myc IP, anti-Myc antibody (Cell Signaling Technology no. 2276) was used at 1:1000 dilution. For FBXO44 IP, 5 μL of anti-FBXO44 antibody (Sigma-Aldrich no. HPA003363) was used for 10⁶ cells. Beads were washed with IP buffer, boiled in 1×SDS gel loading buffer, and subjected to electrophoresis.
(§2) Next, to characterize FBXO44's molecular interactions with interactions with SUV39H1, CRL4RBBP4/7, and Mi-2/NuRD, Co-IP experiments were performed as described in example 3. For SUV39H1 IP, anti-SUV39H1 antibody (Millipore no. 05-615) was used at 1:100 dilution. For CUL4B IP, 2 μg of anti-CUL4B antibody (Proteintech no. 12916-1-AP) was used for 2500 μg of protein lysate. […]

RBBP4 (endogenous) = biological target: T2, RBBP4 (endogenous) (UniProt Q09028 2-425); experiment: co-IP of endogenous FBXO44 in MDA-MB-231 cells, immunoblot (FIG. 4A)
T2 construct: also called DCAF RBBP4

RBBP7 (endogenous) = biological target: T3, RBBP7 (endogenous) (UniProt Q16576 2-425); experiment: as above
T3 construct: also called DCAF RBBP7

GATAD2B (endogenous) = biological target: T4, GATAD2B (endogenous) (UniProt Q8WXI9 1-593); experiment: co-IP of endogenous FBXO44, control vs SUV39H1 KD (FIG. 3I; its legend names GATAD2A)
T4 construct: also called Mi-2/NuRD component
Procedure: as §1, §2

CUL4B (endogenous) = biological target: B1; experiment: co-IP of endogenous FBXO44 in MDA-MB-231 cells, immunoblot; CRL4 components named CUL4A/CUL4B in the legend of FIG. 4A
CUL1 (endogenous) = CUL1 (endogenous) (UniProt Q13616 1-776); experiment: IP from chromatin fractions, immunoblot (FIG. 1F)
Flag-Histone H3.1 = Flag-Histone H3.1 (UniProt P68431 1-136); experiment: co-IP of endogenous FBXO44 with Flag-Histone H3.1 or H3.3 (FIG. 5B)
Procedure: as §1

Measured: binding result

T2 sequence (Q09028 2-425 limits assumed): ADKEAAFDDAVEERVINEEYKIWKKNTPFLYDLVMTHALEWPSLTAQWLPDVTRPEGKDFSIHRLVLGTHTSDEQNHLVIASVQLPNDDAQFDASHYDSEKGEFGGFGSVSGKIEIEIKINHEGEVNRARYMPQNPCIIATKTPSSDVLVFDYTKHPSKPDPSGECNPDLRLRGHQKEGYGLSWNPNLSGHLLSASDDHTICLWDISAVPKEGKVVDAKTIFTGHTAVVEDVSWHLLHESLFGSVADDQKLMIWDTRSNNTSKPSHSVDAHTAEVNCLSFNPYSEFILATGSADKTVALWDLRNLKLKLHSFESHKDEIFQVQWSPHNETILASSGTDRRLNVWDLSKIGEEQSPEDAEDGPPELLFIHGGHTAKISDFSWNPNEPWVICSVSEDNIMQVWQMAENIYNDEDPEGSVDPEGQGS
T1 sequence (Q16531 2-1140 limits assumed): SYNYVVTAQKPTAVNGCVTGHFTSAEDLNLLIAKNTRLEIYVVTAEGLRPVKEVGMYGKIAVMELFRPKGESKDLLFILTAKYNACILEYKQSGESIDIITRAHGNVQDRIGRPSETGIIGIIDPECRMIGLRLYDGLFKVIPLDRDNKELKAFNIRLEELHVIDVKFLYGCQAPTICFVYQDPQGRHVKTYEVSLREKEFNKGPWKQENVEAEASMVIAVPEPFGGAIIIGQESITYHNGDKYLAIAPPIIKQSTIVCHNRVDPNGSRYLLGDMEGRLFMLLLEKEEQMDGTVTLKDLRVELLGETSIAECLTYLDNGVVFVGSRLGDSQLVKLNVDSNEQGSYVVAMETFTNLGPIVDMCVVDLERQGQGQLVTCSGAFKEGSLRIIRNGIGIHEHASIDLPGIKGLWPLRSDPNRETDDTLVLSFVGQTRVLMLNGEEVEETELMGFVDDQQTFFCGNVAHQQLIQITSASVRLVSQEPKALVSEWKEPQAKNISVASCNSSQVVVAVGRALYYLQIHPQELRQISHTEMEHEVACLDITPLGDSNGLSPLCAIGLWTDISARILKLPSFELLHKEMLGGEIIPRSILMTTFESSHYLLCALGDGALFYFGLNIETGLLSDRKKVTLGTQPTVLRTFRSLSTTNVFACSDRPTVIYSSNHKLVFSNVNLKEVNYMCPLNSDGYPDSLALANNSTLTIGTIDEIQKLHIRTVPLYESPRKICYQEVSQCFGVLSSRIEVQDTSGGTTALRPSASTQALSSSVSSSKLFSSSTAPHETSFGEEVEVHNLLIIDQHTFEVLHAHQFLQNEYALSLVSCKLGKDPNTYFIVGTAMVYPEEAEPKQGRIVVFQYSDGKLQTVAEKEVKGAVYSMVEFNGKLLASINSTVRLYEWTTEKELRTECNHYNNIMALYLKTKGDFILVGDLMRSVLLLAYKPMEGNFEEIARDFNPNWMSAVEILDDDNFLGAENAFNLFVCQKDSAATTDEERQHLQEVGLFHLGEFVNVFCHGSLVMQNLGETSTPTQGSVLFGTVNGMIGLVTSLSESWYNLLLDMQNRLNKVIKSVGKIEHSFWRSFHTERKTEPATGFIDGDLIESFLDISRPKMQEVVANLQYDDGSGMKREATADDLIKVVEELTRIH
T3 sequence (Q16576 2-425 limits assumed): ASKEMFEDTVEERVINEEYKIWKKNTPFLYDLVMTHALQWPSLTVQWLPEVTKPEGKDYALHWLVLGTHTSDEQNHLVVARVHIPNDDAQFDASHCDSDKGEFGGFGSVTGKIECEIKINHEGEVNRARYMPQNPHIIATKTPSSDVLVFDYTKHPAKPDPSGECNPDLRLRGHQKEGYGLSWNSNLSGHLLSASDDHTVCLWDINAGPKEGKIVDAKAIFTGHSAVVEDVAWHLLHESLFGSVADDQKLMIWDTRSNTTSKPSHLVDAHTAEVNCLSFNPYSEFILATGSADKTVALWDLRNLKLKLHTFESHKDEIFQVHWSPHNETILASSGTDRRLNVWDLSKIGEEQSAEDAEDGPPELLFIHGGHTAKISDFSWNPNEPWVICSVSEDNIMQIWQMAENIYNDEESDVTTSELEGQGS
T4 sequence (Q8WXI9 whole entry): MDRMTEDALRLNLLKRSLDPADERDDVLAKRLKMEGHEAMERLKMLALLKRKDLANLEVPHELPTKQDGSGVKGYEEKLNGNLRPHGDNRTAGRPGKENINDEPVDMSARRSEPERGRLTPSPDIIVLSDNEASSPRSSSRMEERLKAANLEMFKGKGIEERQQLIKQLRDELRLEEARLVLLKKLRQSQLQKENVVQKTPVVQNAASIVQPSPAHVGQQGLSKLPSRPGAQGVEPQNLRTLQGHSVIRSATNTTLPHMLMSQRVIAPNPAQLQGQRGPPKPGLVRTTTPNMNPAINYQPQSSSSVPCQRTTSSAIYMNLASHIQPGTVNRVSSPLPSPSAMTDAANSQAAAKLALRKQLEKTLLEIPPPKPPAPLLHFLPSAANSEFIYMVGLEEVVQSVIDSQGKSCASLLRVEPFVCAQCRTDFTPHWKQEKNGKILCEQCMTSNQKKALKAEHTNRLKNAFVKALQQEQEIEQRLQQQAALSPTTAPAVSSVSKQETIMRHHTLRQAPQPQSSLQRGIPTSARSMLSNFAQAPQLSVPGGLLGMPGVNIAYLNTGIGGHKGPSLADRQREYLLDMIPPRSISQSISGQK
Chain of CUL1 (endogenous) (Q13616 whole entry): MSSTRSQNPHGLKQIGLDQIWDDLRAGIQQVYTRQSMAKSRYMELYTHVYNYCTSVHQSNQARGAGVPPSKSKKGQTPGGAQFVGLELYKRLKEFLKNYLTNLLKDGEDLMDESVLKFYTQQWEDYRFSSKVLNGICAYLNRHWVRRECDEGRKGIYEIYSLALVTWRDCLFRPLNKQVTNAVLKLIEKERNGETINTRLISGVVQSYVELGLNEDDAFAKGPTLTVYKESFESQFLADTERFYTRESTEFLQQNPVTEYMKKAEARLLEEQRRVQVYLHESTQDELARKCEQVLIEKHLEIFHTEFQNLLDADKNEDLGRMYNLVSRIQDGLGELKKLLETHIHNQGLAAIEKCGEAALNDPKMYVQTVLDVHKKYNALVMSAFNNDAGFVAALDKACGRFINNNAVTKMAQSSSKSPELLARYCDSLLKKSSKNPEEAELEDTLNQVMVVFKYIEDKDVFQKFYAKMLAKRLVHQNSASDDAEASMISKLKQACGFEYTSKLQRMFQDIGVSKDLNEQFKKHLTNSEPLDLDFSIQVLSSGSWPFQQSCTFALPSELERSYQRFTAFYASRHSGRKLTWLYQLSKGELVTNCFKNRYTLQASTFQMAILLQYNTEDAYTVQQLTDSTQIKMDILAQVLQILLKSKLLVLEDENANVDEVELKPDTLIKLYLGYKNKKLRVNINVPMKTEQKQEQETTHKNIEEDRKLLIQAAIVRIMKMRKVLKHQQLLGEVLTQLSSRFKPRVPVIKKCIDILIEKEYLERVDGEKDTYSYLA

B1
binds: DDB1 (endogenous)

B2: FBXO44 (endogenous F-box protein FBXO44) (other, human, UniProt Q9H4M3 1-255, looked up)
chain: MAVGNINELPENILLELFTHVPARQLLLNCRLVCSLWRDLIDLVTLWKRKCLREGFITEDWDQPVADWKIFYFLRSLHRNLLHNPCAEEGFEFWSLDVNGGDEWKVEDLSRDQRKEFPNDQVKKYFVTSYYTCLKSQVVDLKAEGYWEELMDTTRPDIEVKDWFAARPDCGSKYQLCVQLLSSAHAPLGTFQPDPATIQQKSDAKWREVSHTFSNYPPGVRYIWFQHGGVDTHYWAGWYGPRVTNSSITIGPPLP
notes: Endogenous protein in cell lysates or chromatin fractions; also called FBX044
not listed: DDB1 (endogenous)
binds: all other assays above
